Results on 3 proteins are retold here after US20040234530.

The target in data set [1] is BODIPY FL-conjugated casein (EnzChek Protease Assay Kit, Molecular Probes).
Data set [2] has as its target fibronectin (Calbiochem, San Diego, CA), P02751.
The target in data set [3] is collagen IV (Rockland, Gilbertsville, PA).
For data set [4], the target named is T1, α1-antichymotrypsin (Sigma, St. Louis, MO), P01011.
T1 chain: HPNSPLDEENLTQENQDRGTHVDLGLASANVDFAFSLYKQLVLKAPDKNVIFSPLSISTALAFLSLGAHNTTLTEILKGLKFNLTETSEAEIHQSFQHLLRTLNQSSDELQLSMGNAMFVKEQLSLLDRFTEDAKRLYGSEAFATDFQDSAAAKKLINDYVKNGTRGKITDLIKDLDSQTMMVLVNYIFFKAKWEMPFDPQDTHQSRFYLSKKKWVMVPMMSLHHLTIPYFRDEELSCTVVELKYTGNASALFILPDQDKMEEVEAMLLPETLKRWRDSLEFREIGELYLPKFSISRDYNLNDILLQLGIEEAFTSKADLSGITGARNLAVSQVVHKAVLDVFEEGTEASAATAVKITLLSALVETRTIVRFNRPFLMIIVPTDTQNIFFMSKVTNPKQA

The target of data set [5] is T2, α2-antiplasmin (Calbiochem, San Diego, CA), P08697.
T2 chain: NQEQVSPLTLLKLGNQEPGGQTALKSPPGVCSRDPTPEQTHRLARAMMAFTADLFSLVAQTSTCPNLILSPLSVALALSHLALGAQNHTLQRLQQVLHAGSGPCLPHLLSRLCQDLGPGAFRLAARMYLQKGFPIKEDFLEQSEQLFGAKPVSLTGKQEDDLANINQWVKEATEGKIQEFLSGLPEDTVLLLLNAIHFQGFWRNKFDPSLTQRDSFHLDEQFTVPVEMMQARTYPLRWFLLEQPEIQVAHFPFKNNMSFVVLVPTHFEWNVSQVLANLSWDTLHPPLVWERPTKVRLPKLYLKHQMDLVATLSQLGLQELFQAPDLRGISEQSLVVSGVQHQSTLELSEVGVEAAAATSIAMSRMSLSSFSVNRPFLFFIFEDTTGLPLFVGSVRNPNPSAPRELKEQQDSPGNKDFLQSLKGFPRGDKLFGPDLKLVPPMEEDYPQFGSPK

The target in data set [6] is T3, C1-esterase inhibitor (human plasma protease C1 inhibitor), purified or in human serum, P05155.
T3 chain: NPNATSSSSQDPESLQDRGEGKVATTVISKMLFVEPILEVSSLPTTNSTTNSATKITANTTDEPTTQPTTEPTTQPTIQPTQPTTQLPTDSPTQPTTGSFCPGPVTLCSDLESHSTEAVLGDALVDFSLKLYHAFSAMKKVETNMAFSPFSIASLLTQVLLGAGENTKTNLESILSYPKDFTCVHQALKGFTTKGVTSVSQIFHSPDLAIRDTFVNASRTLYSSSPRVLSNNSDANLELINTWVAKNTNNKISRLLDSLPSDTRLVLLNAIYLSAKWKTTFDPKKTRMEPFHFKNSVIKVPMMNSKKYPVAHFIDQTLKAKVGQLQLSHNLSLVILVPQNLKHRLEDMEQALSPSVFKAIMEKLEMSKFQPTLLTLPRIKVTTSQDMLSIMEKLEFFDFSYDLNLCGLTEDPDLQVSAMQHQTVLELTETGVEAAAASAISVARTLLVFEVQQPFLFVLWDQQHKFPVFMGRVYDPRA

Data set [7] has as its target antithrombin (Enzyme Research Labs, South Bend, IN), P01008.
Data set [8] concerns the target Elastin (Sigma, St. Louis, MO).
For data set [9], the target named is α1-antitrypsin (Sigma, St. Louis, MO), P01009.
Data set [10] concerns the target T4, α2-macroglobulin (Calbiochem, San Diego, CA), P01023.
T4 chain: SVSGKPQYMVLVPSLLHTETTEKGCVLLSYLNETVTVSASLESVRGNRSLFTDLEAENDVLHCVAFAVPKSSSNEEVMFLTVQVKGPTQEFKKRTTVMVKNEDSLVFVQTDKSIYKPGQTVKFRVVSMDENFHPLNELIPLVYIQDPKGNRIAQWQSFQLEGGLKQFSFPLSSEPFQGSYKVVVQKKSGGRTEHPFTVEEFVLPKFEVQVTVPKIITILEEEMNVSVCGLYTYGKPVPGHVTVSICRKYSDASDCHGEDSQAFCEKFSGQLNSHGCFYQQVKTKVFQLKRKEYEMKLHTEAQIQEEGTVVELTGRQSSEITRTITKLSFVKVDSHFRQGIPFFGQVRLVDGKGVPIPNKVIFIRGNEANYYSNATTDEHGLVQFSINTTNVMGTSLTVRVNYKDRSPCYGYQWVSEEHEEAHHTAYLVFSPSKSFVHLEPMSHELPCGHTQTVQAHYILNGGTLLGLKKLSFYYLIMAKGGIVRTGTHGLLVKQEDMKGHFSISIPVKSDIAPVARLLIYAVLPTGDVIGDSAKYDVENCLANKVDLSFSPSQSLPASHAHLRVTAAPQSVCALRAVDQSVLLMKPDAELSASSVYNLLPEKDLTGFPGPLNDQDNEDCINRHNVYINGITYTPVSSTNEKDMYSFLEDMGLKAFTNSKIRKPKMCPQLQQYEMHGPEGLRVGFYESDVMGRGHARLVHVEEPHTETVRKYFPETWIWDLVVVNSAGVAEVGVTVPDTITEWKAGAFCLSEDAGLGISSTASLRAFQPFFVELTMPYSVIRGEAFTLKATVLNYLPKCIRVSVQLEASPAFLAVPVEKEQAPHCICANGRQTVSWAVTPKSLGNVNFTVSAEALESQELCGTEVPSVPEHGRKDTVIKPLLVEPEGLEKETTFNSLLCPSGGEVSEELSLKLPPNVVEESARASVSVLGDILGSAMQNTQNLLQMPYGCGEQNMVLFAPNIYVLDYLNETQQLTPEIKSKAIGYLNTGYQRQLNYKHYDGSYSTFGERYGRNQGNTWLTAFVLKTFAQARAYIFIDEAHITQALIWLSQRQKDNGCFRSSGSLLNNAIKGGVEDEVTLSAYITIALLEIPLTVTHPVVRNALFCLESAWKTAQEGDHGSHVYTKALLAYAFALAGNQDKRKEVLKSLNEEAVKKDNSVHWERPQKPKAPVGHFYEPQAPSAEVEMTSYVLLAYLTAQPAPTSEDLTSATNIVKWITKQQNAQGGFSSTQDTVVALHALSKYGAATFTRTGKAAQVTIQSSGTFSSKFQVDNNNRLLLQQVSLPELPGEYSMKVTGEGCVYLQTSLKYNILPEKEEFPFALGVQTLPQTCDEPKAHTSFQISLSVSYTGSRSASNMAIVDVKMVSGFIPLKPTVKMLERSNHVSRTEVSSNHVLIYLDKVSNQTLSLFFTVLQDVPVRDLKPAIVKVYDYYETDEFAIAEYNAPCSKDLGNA

The target of data set [11] is Gelatin (BioRad, Hercules, CA).
Data set [12] has as its target von Willebrand factor (gift from Dr. D. Mosher, UW-Madison), P04275.
The target in data set [13] is serum albumin (New England Biolabs, Beverly, MA).
Data set [14] deals with T5, C-serp(98), a recombinant C1-INH molecule lacking the N-terminal amino acids 1-97 and containing only the serpin domain, P05155.
T5 chain: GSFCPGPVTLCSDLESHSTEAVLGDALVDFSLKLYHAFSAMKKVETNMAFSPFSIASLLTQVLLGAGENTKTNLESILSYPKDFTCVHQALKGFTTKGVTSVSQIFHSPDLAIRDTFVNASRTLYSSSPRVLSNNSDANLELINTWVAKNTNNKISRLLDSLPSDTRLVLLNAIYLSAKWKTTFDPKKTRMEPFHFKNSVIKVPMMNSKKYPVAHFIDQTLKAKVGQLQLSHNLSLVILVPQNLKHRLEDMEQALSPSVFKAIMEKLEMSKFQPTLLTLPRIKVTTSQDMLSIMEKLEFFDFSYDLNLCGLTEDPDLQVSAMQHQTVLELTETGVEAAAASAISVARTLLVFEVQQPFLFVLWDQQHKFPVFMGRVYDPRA

In data set [15] the target is T6, recombinant, full-length human C1-INH (hC1-INH) expressed in COS-7 cells, 35S-methionine-labeled, P05155.
T6 chain: T3 chain

Sequence of α1-antitrypsin (Sigma, St. Louis, MO), P01009 (P01009 whole entry, looked up): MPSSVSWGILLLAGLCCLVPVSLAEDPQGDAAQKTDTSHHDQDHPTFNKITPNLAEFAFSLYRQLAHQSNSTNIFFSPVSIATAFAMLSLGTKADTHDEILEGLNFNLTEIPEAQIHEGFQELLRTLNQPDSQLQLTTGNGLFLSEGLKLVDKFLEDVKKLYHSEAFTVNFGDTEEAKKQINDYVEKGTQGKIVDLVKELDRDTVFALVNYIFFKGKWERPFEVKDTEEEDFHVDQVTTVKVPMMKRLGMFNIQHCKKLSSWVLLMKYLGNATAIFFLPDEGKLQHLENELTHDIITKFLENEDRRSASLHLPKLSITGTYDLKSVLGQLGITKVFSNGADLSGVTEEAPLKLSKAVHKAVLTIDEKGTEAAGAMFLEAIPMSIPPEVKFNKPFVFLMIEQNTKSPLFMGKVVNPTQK
Sequence of antithrombin (Enzyme Research Labs, South Bend, IN), P01008 (P01008 whole entry, looked up): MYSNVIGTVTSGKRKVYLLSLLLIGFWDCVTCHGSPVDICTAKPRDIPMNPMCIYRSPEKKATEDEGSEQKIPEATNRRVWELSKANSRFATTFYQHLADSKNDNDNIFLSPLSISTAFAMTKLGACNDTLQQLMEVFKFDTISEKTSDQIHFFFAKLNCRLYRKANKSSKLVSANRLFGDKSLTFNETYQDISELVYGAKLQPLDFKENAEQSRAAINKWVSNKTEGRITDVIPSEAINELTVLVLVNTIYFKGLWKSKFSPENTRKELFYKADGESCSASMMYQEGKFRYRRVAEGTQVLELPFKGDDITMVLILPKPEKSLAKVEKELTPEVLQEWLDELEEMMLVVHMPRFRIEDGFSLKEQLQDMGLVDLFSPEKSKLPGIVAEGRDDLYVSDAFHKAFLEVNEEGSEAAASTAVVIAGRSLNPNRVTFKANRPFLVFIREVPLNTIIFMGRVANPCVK
Sequence of fibronectin (Calbiochem, San Diego, CA), P02751 (P02751 32-2477): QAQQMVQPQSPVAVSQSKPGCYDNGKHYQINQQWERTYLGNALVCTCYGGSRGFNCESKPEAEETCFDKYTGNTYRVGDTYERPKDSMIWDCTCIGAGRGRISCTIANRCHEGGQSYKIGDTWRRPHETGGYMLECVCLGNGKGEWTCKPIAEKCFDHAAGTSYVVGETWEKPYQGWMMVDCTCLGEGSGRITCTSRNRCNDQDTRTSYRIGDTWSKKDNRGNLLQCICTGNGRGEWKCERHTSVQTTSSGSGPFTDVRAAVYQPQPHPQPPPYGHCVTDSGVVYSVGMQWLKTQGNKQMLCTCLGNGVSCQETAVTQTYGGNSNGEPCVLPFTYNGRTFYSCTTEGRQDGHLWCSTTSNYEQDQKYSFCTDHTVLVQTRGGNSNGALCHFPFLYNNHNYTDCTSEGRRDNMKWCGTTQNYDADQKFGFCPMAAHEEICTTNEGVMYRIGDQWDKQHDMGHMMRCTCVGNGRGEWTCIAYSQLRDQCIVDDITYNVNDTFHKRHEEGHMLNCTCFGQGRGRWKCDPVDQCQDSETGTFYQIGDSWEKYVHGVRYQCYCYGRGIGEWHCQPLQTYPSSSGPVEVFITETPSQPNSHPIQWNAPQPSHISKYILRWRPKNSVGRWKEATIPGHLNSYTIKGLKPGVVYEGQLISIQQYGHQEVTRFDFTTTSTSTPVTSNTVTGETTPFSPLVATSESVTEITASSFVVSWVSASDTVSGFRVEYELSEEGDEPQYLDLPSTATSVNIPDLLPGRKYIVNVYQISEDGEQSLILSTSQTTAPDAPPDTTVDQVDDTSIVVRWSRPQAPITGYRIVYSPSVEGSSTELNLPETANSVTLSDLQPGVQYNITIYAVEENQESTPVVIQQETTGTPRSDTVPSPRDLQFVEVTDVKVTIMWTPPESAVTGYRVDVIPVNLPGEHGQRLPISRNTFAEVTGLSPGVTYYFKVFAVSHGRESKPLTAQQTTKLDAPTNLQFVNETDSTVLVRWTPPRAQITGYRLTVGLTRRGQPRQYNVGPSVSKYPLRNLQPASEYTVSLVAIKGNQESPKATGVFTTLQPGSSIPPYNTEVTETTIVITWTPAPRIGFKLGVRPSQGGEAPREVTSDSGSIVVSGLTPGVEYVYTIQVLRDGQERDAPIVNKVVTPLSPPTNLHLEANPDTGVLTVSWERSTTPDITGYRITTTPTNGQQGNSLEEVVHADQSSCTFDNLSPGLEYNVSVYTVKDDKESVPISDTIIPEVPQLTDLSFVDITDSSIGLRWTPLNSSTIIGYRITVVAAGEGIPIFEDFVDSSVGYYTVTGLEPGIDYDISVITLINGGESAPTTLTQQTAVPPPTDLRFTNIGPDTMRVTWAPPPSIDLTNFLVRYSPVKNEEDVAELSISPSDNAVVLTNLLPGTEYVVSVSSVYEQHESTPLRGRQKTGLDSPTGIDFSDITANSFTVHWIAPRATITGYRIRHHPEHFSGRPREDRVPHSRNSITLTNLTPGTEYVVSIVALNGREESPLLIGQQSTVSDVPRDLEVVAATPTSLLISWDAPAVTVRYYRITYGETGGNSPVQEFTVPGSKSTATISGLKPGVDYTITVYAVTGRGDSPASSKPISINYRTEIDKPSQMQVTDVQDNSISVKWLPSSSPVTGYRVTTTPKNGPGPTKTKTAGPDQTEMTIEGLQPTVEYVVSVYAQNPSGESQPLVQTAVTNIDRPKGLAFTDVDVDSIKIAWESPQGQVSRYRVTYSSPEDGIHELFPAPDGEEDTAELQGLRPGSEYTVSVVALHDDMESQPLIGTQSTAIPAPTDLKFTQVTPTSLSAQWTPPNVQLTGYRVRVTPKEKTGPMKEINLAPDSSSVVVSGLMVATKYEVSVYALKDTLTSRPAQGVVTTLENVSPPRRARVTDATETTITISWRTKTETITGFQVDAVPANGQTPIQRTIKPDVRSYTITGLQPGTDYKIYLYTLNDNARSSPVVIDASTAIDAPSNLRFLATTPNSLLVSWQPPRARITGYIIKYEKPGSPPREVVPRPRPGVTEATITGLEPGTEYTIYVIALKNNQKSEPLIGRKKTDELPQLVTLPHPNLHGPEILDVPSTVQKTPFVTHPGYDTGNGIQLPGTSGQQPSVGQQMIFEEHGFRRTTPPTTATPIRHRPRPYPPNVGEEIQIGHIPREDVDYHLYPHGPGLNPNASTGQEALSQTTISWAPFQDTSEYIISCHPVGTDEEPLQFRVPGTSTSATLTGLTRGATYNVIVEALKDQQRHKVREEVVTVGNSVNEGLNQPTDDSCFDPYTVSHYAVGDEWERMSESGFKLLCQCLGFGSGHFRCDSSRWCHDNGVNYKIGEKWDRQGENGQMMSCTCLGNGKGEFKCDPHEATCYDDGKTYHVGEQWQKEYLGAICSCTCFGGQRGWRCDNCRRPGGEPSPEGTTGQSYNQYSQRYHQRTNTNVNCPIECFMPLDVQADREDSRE

B1: Pseudomonas aeruginosa elastase (Calbiochem EC# 3.4.24.26) (protein)
chain: AEAGGPGGNQKIGKYTYGSDYGPLIVNDRCEMDDGNVITVDMNSSTDDSKTTPFRFACPTNTYKQVNGAYSPLNDAHFFGGVVFKLYRDWFGTSPLTHKLYMKVHYGRSVENAYWDGTAMLFGDGATMFYPLVSLDVAAHEVSHGFTEQNSGLIYRGQSGGMNEAFSDMAGEAAEFYMRGKNDFLIGYDIKKGSGALRYMDQPSRDGRSIDNASQYYNGIDVHHSSGVYNRAFYLLANSPGWDTRKAFEVFVDANRYYWTATSNYNSGACGVIRSAQNRNYSAADVTRAFSTVGVTCPSAL
With B1, the “fluorescent measurement of casein degradation” value in [1] is “elastase was able to act on casein at lower concentrations (range: 0.5 ng to 1 µg/unit of volume)”. The Proteolysis of substrates result in data set [2] was “+”; in data set [3], “-”; in data set [4] it was “+”; in data set [5] it was “+”; in [6] it was “+”; in data set [7], “+”. For the same protein, the Proteolysis of substrates result in data set [8], in data set [9], in [10] and in [11] was “+” each time.

B2: StcE-His (recombinant his-tagged form of StcE, from pWL107 in BL21(DE3), strain WAM2572) (protein)
chain: ADNNSAIYFNTSQPINDLQGSLAAEVKFAQSQILPAHPKEGDSQPHLTSLRKSLLLVRPVKADDKTPVQVEARDDNNKILGTLTLYPPSSLPDTIYHLDGVPEGGIDFTPHNGTKKIINTVAEVNKLSDASGSSIHSHLTNNALVEIHTANGRWVRDIYLPQGPDLEGKMVRFVSSAGYSSTVFYGDRKVTLSVGNTLLFKYVNGQWFRSGELENNRITYAQHIWSAELPAHWIVPGLNLVIKQGNLSGRLNDIKIGAPGELLLHTIDIGMLTTPRDRFDFAKDKEAHREYFQTIPVSRMIVNNYAPLHLKEVMLPTGELLTDMDPGNGGWHSGTMRQRIGKELVSHGIDNANYGLNSTAGLGENSHPYVVAQLAAHNSRGNYANGIQVHGGSGGGGIVTLDSTLGNEFSHEVGHNYGLGHYVDGFKGSVHRSAENNNSTWGWDGDKKRFIPNFYPSQTNEKSCLNNQCQEPFDGHKFGFDAMAGGSPFSAANRFTMYTPNSSAIIQRFFENKAVFDSRSSTGFSKWNADTQEMEPYEHTIDRAEQITASVNELSESKMAELMAEYAVVKVHMWNGNWTRNIYIPTASADNRGSILTINHEAGYNSYLFINGDEKVVSQGYKKSFVSDGQFWKERDVVDTREARKPEQFGVPVTTLVGYYDPEGTLSSYIYPAMYGAYGFTYSDDSQNLSDNDCQLQVDTKEGQLRFRLANHRANNTVMNKFHINVPTESQPTQATLVCNNKILDTKSLTPAPEGLTYTVNGQALPAKENEGCIVSVNSGKRYCLPVGQRSGYSLPDWIVGQEVYVDSGAKAKVLLSDWDNLSYNRIGEFVGNVNPADMKKVKAWNGQYLDFSKPRSMRVVYKHHHHHH
In the case of B2, in data set [1], the “fluorescent measurement of casein degradation” value is “StcE-His was unable to degrade casein even at high protein concentrations (up to 6.4 µg/unit of volume)”. For the same protein, the Proteolysis of substrates result is on record as “-” in data set [2]; “-” in [3]; “-” in data set [4]; “-” in [5]; “+” in data set [6]; “-” in data set [12]. Besides, the Proteolysis of substrates result in data set [7], in data set [13], in data set [8], in data set [9], in [10] and in data set [11] was “-” each time.

B3: StcE′-His (lacking the StcE N-terminal signal sequence, 6xHis tag at the C-terminus; from pTB4, strain WAM2751) (protein)
chain: B2 chain
In the case of B3, the “cleavage of 35S-labeled recombinant protein (immunoprecipitation, SDS-PAGE)” value in [14] is reported as “C-serp(98) was unaffected by the protease”; in data set [15], “only hC1-INH was cleaved by StcE′-His”.
